The source of these data is PMC6123492, “Structural and biochemical insights into small RNA 3′ end trimming by Arabidopsis SDN1”.

In one data set the target is T1, SDN1 RRM (NMR) (Arabidopsis thaliana, UniProt A3KPE8 305-409).
T1 sequence: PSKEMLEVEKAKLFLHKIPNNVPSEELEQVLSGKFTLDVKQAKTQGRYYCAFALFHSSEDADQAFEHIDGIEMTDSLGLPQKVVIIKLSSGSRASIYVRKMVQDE
Briefly: NMR titration; EMSA: 50 mM Tris pH 8.0, 100 mM NaCl, 1 mM DTT, no Mg2+, 2 nM RNA, on ice 30 min, 8% native PAGE in 0.5x TBE; NMR: 50 mM Na2HPO4 pH 7.4, 100 mM NaCl, 10% D2O. The conditions noted are these: protein: recombinant; tags: His-SUMO tag removed; 15N-labeled; single strand.

Data set [1] has as its target T2, SDN1 wild type (Arabidopsis thaliana, UniProt A3KPE8 2-409).
T2 sequence: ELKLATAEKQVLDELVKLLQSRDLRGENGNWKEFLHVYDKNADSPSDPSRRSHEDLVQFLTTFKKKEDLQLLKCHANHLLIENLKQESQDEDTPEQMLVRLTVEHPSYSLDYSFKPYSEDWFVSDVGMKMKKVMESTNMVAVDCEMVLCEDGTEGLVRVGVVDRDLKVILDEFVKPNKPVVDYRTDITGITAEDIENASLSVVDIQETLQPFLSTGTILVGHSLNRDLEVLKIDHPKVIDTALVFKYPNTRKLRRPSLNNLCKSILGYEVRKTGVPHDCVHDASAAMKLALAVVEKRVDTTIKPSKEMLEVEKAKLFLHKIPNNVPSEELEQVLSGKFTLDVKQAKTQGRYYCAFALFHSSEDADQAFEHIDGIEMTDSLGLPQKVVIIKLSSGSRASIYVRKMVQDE
Briefly: crystal structure; 2 Mg2+; 9 of 10 nt seen, 2.8 Å; EMSA: 50 mM Tris pH 8.0, 100 mM NaCl, 1 mM DTT, no Mg2+, 2 nM RNA, on ice 30 min, 8% native PAGE in 0.5x TBE; NMR: 50 mM Na2HPO4 pH 7.4, 100 mM NaCl, 10% D2O. The following applies: protein: recombinant; tags: His-SUMO tag removed; single strand.

Data set [2] deals with T2, SDN1 wild type. Kind of data set: EMSA; no Mg2+; Kd,app in µM range, value only in figure; EMSA: 50 mM Tris pH 8.0, 100 mM NaCl, 1 mM DTT, no Mg2+, 2 nM RNA, on ice 30 min, 8% native PAGE in 0.5x TBE; NMR: 50 mM Na2HPO4 pH 7.4, 100 mM NaCl, 10% D2O. The conditions noted are these: protein: recombinant; tags: His-SUMO tag removed; label: 5' 32P; single strand. Background: In EMSA bound probe runs differently from free probe, usually more slowly.

Data set [3] has as its target T2, SDN1 wild type. Briefly: UV crosslinking (5-iodoU, 312 nm); EMSA: 50 mM Tris pH 8.0, 100 mM NaCl, 1 mM DTT, no Mg2+, 2 nM RNA, on ice 30 min, 8% native PAGE in 0.5x TBE; NMR: 50 mM Na2HPO4 pH 7.4, 100 mM NaCl, 10% D2O. The following applies: protein: recombinant, tags: His-SUMO tag removed.
In the next data set the target is T3, SDN1 ΔC (Arabidopsis thaliana, UniProt A3KPE8 2-302).
T3 sequence: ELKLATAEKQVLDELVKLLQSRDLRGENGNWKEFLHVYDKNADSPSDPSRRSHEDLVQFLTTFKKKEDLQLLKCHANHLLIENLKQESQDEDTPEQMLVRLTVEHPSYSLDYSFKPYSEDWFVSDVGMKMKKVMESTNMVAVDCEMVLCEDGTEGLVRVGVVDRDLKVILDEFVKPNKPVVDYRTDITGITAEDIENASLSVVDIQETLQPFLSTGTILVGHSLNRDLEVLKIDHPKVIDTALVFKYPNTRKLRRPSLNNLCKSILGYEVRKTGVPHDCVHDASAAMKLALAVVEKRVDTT
Described as above. The conditions noted are these: protein: recombinant, tags: His-SUMO tag removed.

Setting [4] is: label: 5' 32P on target strand, unpaired miR166 3' end (T6-type), target 3' overhang 4 nt.

As for AGCCCAUUAG (ssRNA) [10 nt ssRNA (crystal, NMR)], the binding result with SDN1 RRM (NMR) and with SDN1 wild type [1] was “binds” in each case.
Consider UUCGCUUGCAGAGAGAAAUCAC (ssRNA) [miR173 (22 nt RNA)], for which the binding result with SDN1 wild type [2] is recorded as “binds”.

B1: miR166:3'-IUU (dsRNA)
RNA 1: UCGGACCAGGCUUCAUCCCCC
RNA 2: GAUUCCCUUGAAGCUUGGUCCGGAUUA
modifications: 5-iodoU at 25,26 of strand 2
Consider B1, for which the binding result in the data set with SDN1 wild type [3] (setting [4]) and with SDN1 ΔC (setting [4]) was “binds” throughout.

B2: miR166:5'-IUU (dsRNA)
RNA 1: UCGGACCAGGCUUCAUCCCCC
RNA 2: GAUUCCCUUGAAGCUUGGUCCGGAUUA
modifications: 5-iodoU at 3,4 of strand 2
For B2, in the data set with SDN1 wild type [3] (setting [4]), the binding result is given as “binds”.
With GAUUCCCUUGAAGCUUGGUCCGGAUUA (ssRNA, 5-iodoU at 3,4) [5'-IUU RNA], in the data set with SDN1 wild type [3] (label: 32P, single strand), the binding result is recorded as “binds”.
Turning to GAUUCCCUUGAAGCUUGGUCCGGAUUA (ssRNA, 5-iodoU at 15,16) [M-IUU RNA], the binding result with SDN1 wild type [3] (label: 32P, single strand) is on record as “binds”.
Consider GAUUCCCUUGAAGCUUGGUCCGGAUUA (ssRNA, 5-iodoU at 25,26) [3'-IUU RNA], for which the binding result is on record as “binds” in the data set with SDN1 wild type [3] (label: 32P, single strand) and “binds” with SDN1 ΔC (label: 32P, single strand).
